Experimental data reported in patent US20250320278A1 (LA JOLLA INSTITUTE FOR IMMUNOLOGY, published 2025).
Substitutions are numbered along the chain they refer to.

B1: NP3-C11 (antibody, V domains shown)
VH: EVQLVESGGGLVRPGGSLKLSCAASGFTFSDYYMYWVRQTPEKRLEWVATISDGGGYNYYPDSVKGRFTVSRDNAKNNLYLQMSSLKSEDTAMYYCVRDKYDGWGSDFDVWGAGTTVTVSS
VL: DIVMTQSPSLMSTSLGERVTMTCTANSSVSSNYMHWYQQKPGSSPKLWIYSTSNLASGVPARFSGSGSGTSYSLTISNMEAEDAATYYCHQFHRSPRTFGGGTKLEIK
B2: NP3-B12 (antibody, V domains shown)
VH: EVQLQQSGAELMKPGASVKISCKATGYTFSSYWIEWVKQRPGHGLEWIGEFFPGSGNTNYNEKFKGKATFTADTSSNTAYMQLSSLTSEDSAVYYCARRGLYDGYYVRYFDVWGAGTTVTVSS
VL: DIVLTQSPASLAVSLGQRATISCKASQSVDYDGYSYMNWYQQKPGQPPKLLIYAASNLESGIPARFSGSGSGTDFTLNIHPVEEEDAATYYCQQSNADPFTFGGGTKLELK
B3: NP3-G12 (antibody, V domains shown)
VH: EAQLQQSGAEPMKPGASVKISCKTTGYTFTSDWIEWVQQRPGHGLEWIGEILPGSGNTNYNENFKGKATLTADTSSNTAYMHLSSLTSEDSAVYYCARRLFLRRYFDVWGAGTTVTVSS
VL: B2 VL with L4M, Y34D, S67G, S69G, A97E
B4: NP3-G8 (antibody, V domains shown)
VH: QVQLQQSGPELKKPGETVKISCKASGYTFTDYSMHWVKQAPGKGLKWLGWKNTESGEETFADDFKGRFDFSLETSASTVYLQIKNLKNEDTAAYFCARSGDIYAMDYWGQGTTVTVSS
VL: B2 VL with D1E, I2N, Y34G, N57T, R65G, A97E, F100W, L110I
B5: NP3-C9 (antibody, V domains shown)
VH: QIQLVQSGPELKKPGETVKISCKASGYTFTDYSIHWVKQAPGKDLKWVGWINTETGEPTYADDFEGRFAFSLETSASTAFLQINNLKNEDTATYFCSRGAATGFWGQGTTLTVSS
VL: B2 VL with Y34D, A54V, E84D, S95T, A97E, F100L, G104A
B6: NP3-E6 (antibody, V domains shown)
VH: B3 VH with A2V, P11L, K13R, T24A, T30S, D32Y, Q38K, G56D, N63K, Y95S
VL: B2 VL with V13L, Y34D, Y53S, S67G, A97E, L110I
B7: NP3-G9 (antibody, V domains shown)
VH: EVQLQQSGAELVRPGSSVKISCKASGYAFSNYWMNWVRQRPGQGLEWIGQIYPGNDDTYYNGKFKGKVTLTADKSSTTAYIQLISLTSEDSAVYFCARRPLFYAMDYWGQGTSVTVSS
VL: DIQMTQSPSSLAVSLGQRASISCKASQSVDYDGESYMNWYQQKPGQPPKVLIYAASNLESGIPARFSGSGAGTDFTLSIHPVEEEDAATYYCQQSYEDPWTFGGGTKLELK
B8: NP3-A7 (antibody, V domains shown)
VH: QIQLVQSGAELVKPGASVKLSCTASGFNIKDTYIHWVRQRPEQGLEWIGRIDPANGDTKYDPKFQDKATLIADTSSNTAYLQLGSLTSEDTAVYYCARYRIYYFDYWGQGTTLTVSS
VL: DIQMTQSPASVPVTPGESVSISCRSSKSLLHSNGNTYVYWFLQRPGQSPRLLIYRMSNLASGVPDRFSGSGSGTAITLRISRVEAEDVGVYSCMQHLEYPLTFGAGTKLEIK

These binders were tested against T1, SARS-CoV-2 N protein, full-length (SARS-CoV-2, UniProt P0DTC9 1-419) (assay: Octet, KD (nM) heat map).
T1 construct: mature; also called SARS-CoV-2 nucleoprotein

Row | Binder | binding result
1 | B1 | binds

These binders were tested against SARS-CoV-2 N protein RNA-binding domain (SARS-CoV-2, UniProt P0DTC9 44-180) (assay: Octet, KD (nM) heat map).

Row | Binder | binding result
2 | B2 | no binding
3 | B3 | no binding
4 | B4 | no binding
5 | B5 | no binding
6 | B6 | no binding
7 | B7 | no binding
8 | B8 | no binding

The binders below were run against T2, SARS-CoV-2 N protein oligomerization domain (SARS-CoV-2, UniProt P0DTC9 247-364) (assay: Octet, KD (nM) heat map).
T2 construct: also called N olig. domain; OD

Row | Binder | binding result
9 | B5 | no binding
10 | B1 | no binding
11 | B8 | no binding

The binders below were run against T1, SARS-CoV-2 N protein, full-length (assay: Octet (BLI) kinetics).

Row | Binder | Kd [nM]
12 | B2 | 1
13 | B4 | 2.54
14 | B5 | 0.75
15 | B6 | 0.48
16 | B8 | 2.75

The binders below were run against T2, SARS-CoV-2 N protein oligomerization … (assay: Octet (BLI) kinetics).

Row | Binder | Kd [nM]
17 | B2 | 0.78
18 | B4 | 1.05
